To fix the notation:
B3: mCD137-mFc-Avi (Fc fusion)
chain: VQNSCDNCQPGTFCRKYNPVCKSCPPSTFSSIGGQPNCNICRVCAGYFRFKKFCSSTHNAECECIEGFHCLGPQCTRCEKDCRPGQELTKQGCKTCSLGTFNDQNGTGVCRPWTNCSLDGRSVLKTGTTEKDVVCGPPVVSFSPSTTISVTPEGGPGGHSLQVL
modifications: one biotin on the Avi sequence of each monomer (BirA); unbiotinylated in the SPR of Example 5.6
notes: also called mouse CD137-mFc-Avi; dimeric mouse CD137; not shown: mouse IgG2a Fc domain (mIgG2a Fc)

Experiment [1] addresses T1, mouse CD137, full length, on cells (mouse, UniProt P20334 24-256). Briefly: cell-based or functional assay.
For experiment [2], the target named is T2, hCD137-mFc-Avi (human; mouse, UniProt Q07011 24-186, one biotin on the Avi sequence of each monomer (BirA); unbiotinylated in the SPR of Example 5.6).
T2 construct: Made in-house in HEK293-6E; also called human CD137-mFc-Avi; dimeric human CD137; not shown: mouse IgG2a Fc domain (mIgG2a Fc)
Briefly: SPR (Biacore T200), mAb2 captured by anti-human Fab, hCD137-mFc in solution, 1:1 Langmuir. As for the experimental part: For the hCD137-mFc-Avi antigen the following method was used: an anti-human Fab molecule was immobilised on a CM5 chip to a surface density of between 9,000 and 11,000 response units (RU). The antibodies were diluted to 4 μg/ml in HBS-EP buffer and captured by the anti-Fab molecule with a flow rate of […].
For mCD137-mFc-Avi binding kinetic determination, a different approach was used. […] The analysis of the data was done using the Biacore T200 evaluation software. Curves were subtracted against a blank flow cell and fitted using a 1:1 Langmuir binding model with mass transfer, setting RI to zero as constant and Rₘₐₓ to local.

The target in experiment [3] is T3, human GITR (human, UniProt Q9Y5U5 26-161, limits assumed).
T3 sequence (looked up): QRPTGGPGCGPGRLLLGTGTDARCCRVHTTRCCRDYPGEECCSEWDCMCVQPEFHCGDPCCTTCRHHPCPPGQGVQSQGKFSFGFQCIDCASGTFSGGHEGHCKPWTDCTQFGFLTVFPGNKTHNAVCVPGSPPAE
In words: SPR (Biacore T200), receptor amine-coupled to CM5 chip. Here is the method: (§1) The specificity of the anti-human CD137 Fcabs for human CD137 compared to other related TNFSFR family members was tested. 8 of the Fcabs were tested in mock mAb² (HeID1.3) format and measured by SPR in a Biacore T200 (GE Healthcare) by testing for binding to other human TNFRSF receptors: CD40, OX40 and GITR. Amine coupling (amine coupling kit, GE Healthcare, BR-1000-50) was used to coat human CD40, GITR and OX40 to approximately 1000 RU in Biacore CM5 chips (GE Healthcare, cat no 29149603). […] The chip was regenerated by injection of 10 mM glycine pH 2.5 for 12 s at 30 μl/min. Antibodies specific to the different TNFRSF members were used as positive controls to verify Biacore chip coating. Data was double reference subtracted and analysed using BIAevaluation 3.2 software.
For orientation: Surface plasmon resonance follows binding to a sensor surface in real time, without labels.

Experiment [4] has as its target human CD40 (human, UniProt P25942 21-193). Described as above. As for the experimental part: as §1
The target in experiment [5] is T4, human OX40 (human, UniProt P43489 29-216, limits assumed).
T4 sequence (looked up): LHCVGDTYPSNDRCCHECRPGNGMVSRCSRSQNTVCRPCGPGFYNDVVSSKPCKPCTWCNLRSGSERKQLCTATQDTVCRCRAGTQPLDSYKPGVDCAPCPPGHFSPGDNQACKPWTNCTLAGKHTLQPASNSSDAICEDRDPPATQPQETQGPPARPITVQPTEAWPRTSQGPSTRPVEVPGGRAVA
Described as above. As for the experimental part:
as §1

Experiment [6] concerns the target human CD137, full length, on cells (human, UniProt Q07011 24-255). In words: cell-based or functional assay.
The target in experiment [7] is T5, hCD137-Avi-His (human, UniProt Q07011 24-186, single biotin on the Avi sequence (BirA); unbiotinylated in the SPR of Example 5.6).
T5 construct: also called human CD137-Avi-His; monomeric human CD137
In words: SPR (Biacore), mAb2 captured by anti-human Fab, antigen in solution, 1:1 Langmuir. The method, boiled down: (§2)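 Each mAb² captured (~150 RU) on an anti-human Fab surface in HBS-EP+; human, cyno or mouse CD137 ([…] CD137-mFc-Avi or human CD137-Avi-His) injected at several concentrations, 3 min association, 10 min dissociation, glycine pH 2.1 regeneration.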

In experiment [8] the target is B3. The description is as above. The method, boiled down: as §2
In experiment [9] the target is T6, cCD137-mFc-Avi (cynomolgus; mouse, one biotin on the Avi sequence of each monomer (BirA); unbiotinylated in the SPR of Example 5.6).
T6 construct: also called cyno CD137-mFc-Avi; dimeric cynomolgus CD137; not shown: mouse IgG2a Fc domain (mIgG2a Fc)
T6 chain: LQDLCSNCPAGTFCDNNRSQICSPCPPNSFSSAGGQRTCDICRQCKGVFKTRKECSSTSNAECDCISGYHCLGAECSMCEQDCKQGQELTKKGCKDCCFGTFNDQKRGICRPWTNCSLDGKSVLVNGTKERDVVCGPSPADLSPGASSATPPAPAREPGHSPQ
Described as above. The method in brief: as §2

The target of experiment [10] is T2, hCD137-mFc-Avi. Described as above. The method, boiled down:
as §2

Experiment [11] addresses T7, mouse GITR (mouse, UniProt O35714 20-153, limits assumed, biotinylated (EZ-Link Sulfo-NHS-SS-Biotin)).
T7 sequence (looked up): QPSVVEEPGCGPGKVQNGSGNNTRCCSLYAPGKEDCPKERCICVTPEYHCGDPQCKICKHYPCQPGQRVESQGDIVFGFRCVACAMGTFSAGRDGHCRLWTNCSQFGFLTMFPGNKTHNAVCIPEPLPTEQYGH
Briefly: BLI (Octet QKe), biotinylated receptor on streptavidin sensors. Here is the method: (§3) The specificity of the anti-mouse CD137 Fcabs for mouse CD137 was tested in HeID1.3 “mock” mAb² format and measured by BLI in an Octet QKe system by testing for binding of the Fcabs to other mouse TNFRSF receptors (CD40, OX40, GITR). […] Anti-mouse CD137 Fcabs in mock mAb² format were diluted 1:1 in kinetic buffer (PALL 18-1092) to a final concentration of at least 1 μM. Antigen-coated sensors were dipped into the mAb² solutions for 180 seconds followed by 180 seconds in 1× kinetic buffer. Antibodies for each of the TNFRSF receptors were used as positive controls.
For orientation: Biolayer interferometry detects binding as a change in optical thickness at a sensor tip.

The target in experiment [12] is mouse CD40 (mouse, UniProt P27512 24-193, limits assumed, biotinylated (EZ-Link Sulfo-NHS-SS-Biotin)). The description is as above. As for the experimental part: as §3
The target of experiment [13] is T1, mouse CD137, full length, on cells. In words: cell-based or functional assay. This is another data set of the same source.
Experiment [14] concerns the target T8, mouse CD137 ligand on DO11.10 cells (mouse, UniProt P41274 1-309).
T8 construct: whole, on cells
T8 sequence (looked up): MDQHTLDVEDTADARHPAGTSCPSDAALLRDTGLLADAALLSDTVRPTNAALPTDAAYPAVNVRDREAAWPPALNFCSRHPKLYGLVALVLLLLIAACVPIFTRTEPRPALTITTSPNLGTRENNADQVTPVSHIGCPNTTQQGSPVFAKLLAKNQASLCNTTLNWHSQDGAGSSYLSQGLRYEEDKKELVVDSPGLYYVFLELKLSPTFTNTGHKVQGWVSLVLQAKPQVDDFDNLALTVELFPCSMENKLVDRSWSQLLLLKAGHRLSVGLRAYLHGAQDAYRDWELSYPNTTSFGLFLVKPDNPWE
Briefly: flow cytometry, detection with anti mouse Fc fragment antibody. As for the experimental part:
In more detail, materials from the same production lot were mixed together and analysed for stability and purity by size-exclusion high-performance liquid chromatography (SE-HPLC), SDS polyacrylamide gel electrophoresis (SDS-PAGE), and size-exclusion chromatography with multi-angle light scattering (SEC-MALS). […] Cells were incubated with the CD137 antigens for 1 hour, and then a fluorescently-labelled anti mouse Fc fragment antibody was used to detect cell binding.
Background: A flow cytometer gives signals particle by particle.

T2 sequence (Q07011 24-186): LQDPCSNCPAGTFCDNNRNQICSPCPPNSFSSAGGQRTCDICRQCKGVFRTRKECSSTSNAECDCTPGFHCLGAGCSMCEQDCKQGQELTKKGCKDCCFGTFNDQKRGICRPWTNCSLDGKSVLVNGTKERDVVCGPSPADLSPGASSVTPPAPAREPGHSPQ
Sequence of human CD40 (P25942 21-193 limits assumed): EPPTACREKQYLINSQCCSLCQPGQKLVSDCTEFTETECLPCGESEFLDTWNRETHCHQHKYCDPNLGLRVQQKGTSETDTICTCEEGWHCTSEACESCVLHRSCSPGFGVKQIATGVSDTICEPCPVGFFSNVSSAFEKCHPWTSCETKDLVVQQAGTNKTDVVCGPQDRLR
Sequence of mouse CD40 (P27512 24-193 limits assumed): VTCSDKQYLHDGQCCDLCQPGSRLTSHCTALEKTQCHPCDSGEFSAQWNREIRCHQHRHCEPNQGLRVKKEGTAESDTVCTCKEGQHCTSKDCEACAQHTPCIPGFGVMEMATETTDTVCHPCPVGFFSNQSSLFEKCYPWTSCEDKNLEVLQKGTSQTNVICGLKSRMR
Sequence of human CD137, full length, on cells (Q07011 24-255): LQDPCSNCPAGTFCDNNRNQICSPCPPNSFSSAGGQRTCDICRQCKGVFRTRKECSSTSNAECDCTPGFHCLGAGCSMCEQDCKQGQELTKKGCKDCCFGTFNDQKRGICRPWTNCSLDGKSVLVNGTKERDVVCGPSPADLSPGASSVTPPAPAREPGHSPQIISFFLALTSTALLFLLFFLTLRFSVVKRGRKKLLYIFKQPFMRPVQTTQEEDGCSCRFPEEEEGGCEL
T5 sequence (Q07011 24-186): as the sequence (Q07011 24-186) above

B1: FS22-053-014/HelD1.3 (bispecific antibody, human IgG1, kappa)
heavy: QVQLQESGPGLVRPSQTLSLTCTVSGSTFSGYGVNWVRQPPGRGLEWIGMIWGDGNTDYNSALKSRVTMLVDTSKNQFSLRLSSVTAADTAVYYCARERDYRLDYWGQGSLVTVSSASTKGPSVFPLAPSSKSTSGGTAALGCLVKDYFPEPVTVSWNSGALTSGVHTFPAVLQSSGLYSLSSVVTVPSSSLGTQTYICNVNHKPSNTKVDKKVEPKSCDKTHTCPPCPAPELLGGPSVFLFPPKPKDTLMISRTPEVTCVVVDVSHEDPEVKFNWYVDGVEVHNAKTKPREEQYNSTYRVVSVLTVLHQDWLNGKEYKCKVSNKALPAPIEKTISKAKGQPREPQVYTLPPSRDELNPPYLFSNQVSLTCLVKGFYPSDIAVEWESNGQPENNYKTTPPVLDSDGSFFLYSKLTVYHWRWLDGNVFSCSVMHEALHNHYTQKSLSLSPG
light: DIQMTQSPASLSASVGETVTITCRASGNIHNYLAWYQQKQGKSPQLLVYNAKTLADGVPSRFSGSGSGTQYSLKINSLQPEDFGSYYCQHFWSTPRTFGGGTKLEIKRTVAAPSVFIFPPSDEQLKSGTASVVCLLNNFYPREAKVQWKVDNALQSGNSQESVTEQDSKDSTYSLSSTLTLSKADYEKHKVYACEVTHQGLSSPVTKSFNRGEC
notes: Mock mAb^2, IgG1 without LALA; also called FS22-053-14; FS22-053-014/HeID1.3
As usually defined, the Kd is the free concentration of one partner at which half of the binding sites on the other are occupied at equilibrium, for simple one-to-one binding. The low end stands for a tighter complex, the high end for a looser complex. For orientation: koff means the first-order rate constant of dissociation. Read a high koff as a short-lived complex. By kon is commonly meant a measure of how fast the partners come together. A low value points to slower complex formation. In the case of B1, in [1], the “IL-2 release, mouse CD137 DO11.10 T cell activation assay, Protein L: +XL EC50” value was 2.04 nM. The “IL-2 release, mouse CD137 DO11.10 T cell activation assay, Protein L: +XL Emax” value in experiment [1] turned out to be 28100 pg/mL. Further, the Kd in [2] was 4.4 nM; in [8], 24 nM; in experiment [9], 0.9 nM; in experiment [10], 3.2 nM. The dissociation rate constant (koff) in experiment [2] was found to be 0.000366 s⁻¹. For the same molecule, the kon in [2] was determined as 83000 M⁻¹ s⁻¹. The binding result in experiment [3], in experiment [4] and in experiment [5] was “no binding (tested: starting at 1 µM)” each time. Also, the “IL-2 release, human CD137 DO11.10 T cell activation assay, Protein L: +XL EC50” value in experiment [6] was found to be 0.73 nM. Also, in experiment [7], the “Human monomeric CD137 KD fold difference relative to human dimeric KD” value was determined as 100 fold.

B2: FS22m-063/HelD1.3 (bispecific antibody, human IgG1, kappa)
heavy: QVQLQESGPGLVRPSQTLSLTCTVSGSTFSGYGVNWVRQPPGRGLEWIGMIWGDGNTDYNSALKSRVTMLVDTSKNQFSLRLSSVTAADTAVYYCARERDYRLDYWGQGSLVTVSSASTKGPSVFPLAPSSKSTSGGTAALGCLVKDYFPEPVTVSWNSGALTSGVHTFPAVLQSSGLYSLSSVVTVPSSSLGTQTYICNVNHKPSNTKVDKKVEPKSCDKTHTCPPCPAPELLGGPSVFLFPPKPKDTLMISRTPEVTCVVVDVSHEDPEVKFNWYVDGVEVHNAKTKPREEQYNSTYRVVSVLTVLHQDWLNGKEYKCKVSNKALPAPIEKTISKAKGQPREPQVYTLPPSRDEPYWSYVSLTCLVKGFYPSDIAVEWESNGQPENNYKTTPPVLDSDGSFFLYSKLTVMNYRWELGNVFSCSVMHEALHNHYTQKSLSLSPG
light: DIQMTQSPASLSASVGETVTITCRASGNIHNYLAWYQQKQGKSPQLLVYNAKTLADGVPSRFSGSGSGTQYSLKINSLQPEDFGSYYCQHFWSTPRTFGGGTKLEIKRTVAAPSVFIFPPSDEQLKSGTASVVCLLNNFYPREAKVQWKVDNALQSGNSQESVTEQDSKDSTYSLSSTLTLSKADYEKHKVYACEVTHQGLSSPVTKSFNRGEC
notes: also called FS22m-063 in HeID1.3 mock mAb^2 format
Regarding B2, in experiment [1], the “IL-2 release, mouse CD137 DO11.10 T cell activation assay, Protein L: +XL EC50” value was 0.39 nM and the “IL-2 release, mouse CD137 DO11.10 T cell activation assay, Protein L: +XL Emax” value is 24200 pg/mL. In experiment [11], the binding result is reported as “no binding (tested: at least 1 µM)”. The binding result in experiment [12] is given as “no binding (tested: at least 1 µM)”. For the same molecule, in experiment [13], the “NF-kB luciferase reporter (HEK.FRT.luc.mCD137), Protein L crosslinked: EC50” value is 1.44 nM and the “NF-kB luciferase reporter (HEK.FRT.luc.mCD137): fold-change in activity upon crosslinking” value was found to be 27 fold.
As to B3, in [14], the binding result is reported as “binds”.
